Source: patent publication US20080176756A1

Biological target: Cyclosporine 29-56-14 combinatorial mutant clone R2-9 (scFv on yeast)
Assay: competition, flow cytometry on yeast; M17 0 to 5 uM against 0.5 nM bt-CsA; physiological or selection diluent

- fold increase of IC50 compared to WT CsA 29-56-14: 30 to 100 fold
Substance: cyclosporine A metabolite M17 (peptide)
